One substance from publication PMC10111636 can be followed below.

Holding throughout (conditions): glycan lost; control: Flag-LARP1-WT
Data set [1] can be described thus: cycloheximide chase, Western blot.
The nature of data set [2]: Western blot, TMG with or without sh-circCLNS1A#1. On the technique in general: Immunoblotting shows a protein as a band on a membrane.
The nature of data set [3]: cycloheximide chase, sh-circCLNS1A#1 vs sh-NC cells.

La-related protein 1 (LARP1): S672A: the degradation_or_half_life result in data set [1] is on record as “decreases”. For the same substance, in data set [2], the “other: dependence of protein level on circCLNS1A” value is “abolishes”. Besides, the “other: dependence of protein stability on circCLNS1A” value in data set [3] is “abolishes”.
